Results from publication PMC7749050 (ACS synthetic biology, 2020).
Values belong to the molecule of their own block, whether it stands above or below them.

Key:
Experiment in all cases: two-hybrid
[1] = biological target: Rhodopseudomonas palustris BphP1 (RpBphP1), mammalian two-hybrid construct (Rhodopseudomonas palustris)
[2] = biological target: T1, GAL4-BD-DrBphP, mammalian two-hybrid bait (Deinococcus radiodurans (strain not …, UniProt Q9RZA4))
[3] = biological target: T1, GAL4-BD-DrBphP, mammalian two-hybrid …; remark: listed apart in the source

T1 sequence (Q9RZA4 whole entry, looked up, the tested form may be a part): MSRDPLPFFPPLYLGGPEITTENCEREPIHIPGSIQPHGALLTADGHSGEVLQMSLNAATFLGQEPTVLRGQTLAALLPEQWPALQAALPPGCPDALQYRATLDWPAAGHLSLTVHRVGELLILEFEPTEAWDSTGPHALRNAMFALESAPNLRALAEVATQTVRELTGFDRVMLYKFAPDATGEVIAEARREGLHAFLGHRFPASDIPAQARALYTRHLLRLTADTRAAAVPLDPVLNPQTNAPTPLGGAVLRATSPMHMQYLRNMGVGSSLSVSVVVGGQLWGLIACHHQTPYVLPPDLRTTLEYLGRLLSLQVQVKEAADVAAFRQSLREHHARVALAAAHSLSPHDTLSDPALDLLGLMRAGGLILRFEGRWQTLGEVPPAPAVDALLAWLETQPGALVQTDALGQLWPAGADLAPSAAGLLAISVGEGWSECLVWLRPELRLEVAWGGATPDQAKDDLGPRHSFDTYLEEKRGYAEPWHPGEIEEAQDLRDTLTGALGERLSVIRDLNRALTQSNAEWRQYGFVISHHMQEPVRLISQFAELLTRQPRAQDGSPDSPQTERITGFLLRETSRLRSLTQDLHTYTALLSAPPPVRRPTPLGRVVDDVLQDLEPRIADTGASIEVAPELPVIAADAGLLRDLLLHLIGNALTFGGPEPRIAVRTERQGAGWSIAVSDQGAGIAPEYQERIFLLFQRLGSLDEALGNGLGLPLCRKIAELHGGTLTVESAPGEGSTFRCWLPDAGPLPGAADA

fold increase of luciferase expression, 775-nm light over dark [1]: 2.95 fold
Molecule: PpsR2, mammalian two-hybrid construct (natural protein)

fold increase of GFP level, 654-nm light over dark [2]: ~44 fold
fold increase of luciferase expression, 654-nm light over dark [3]: ~19.5 fold
B1: LDB-3-p65, mammalian two-hybrid prey (VHH)
VHH: EVQLQASGGGFVQPGGSLRLSCAASGFTWDHYIMGWFRQAPGKEREFVSAISENGDAWNYYADSVKGRFTISRDNSKNTVYLQMNSLRAEDTATYYCAIGFDVPSGRSWQGSHFWMYWGQGTQVTVSS

fold increase of GFP level, 654-nm light over dark [2]: ~39 fold
fold increase of luciferase expression, 654-nm light over dark [3]: ~19.1 fold
B2: LDB-14-p65, mammalian two-hybrid prey (VHH)
VHH: EVQLQASGGGFVQPGGSLRLSCAASGTTSRWESMGWFRQAPGKEREFVSAISWQNNSVPYYADSVKGRFTISRDNSKNTVYLQMNSLRAEDTATYYCAAQHNFLGHRYWGQGTQVTVSS
